Columns and labels:
dcc_human DCC = dcc_human DCC (UniProt P43146)
tbb2b_human TUBB2B = tbb2b_human TUBB2B (UniProt Q9BVA1)
tbb2b_human TUBB2B, sequence (Q9BVA1 whole entry): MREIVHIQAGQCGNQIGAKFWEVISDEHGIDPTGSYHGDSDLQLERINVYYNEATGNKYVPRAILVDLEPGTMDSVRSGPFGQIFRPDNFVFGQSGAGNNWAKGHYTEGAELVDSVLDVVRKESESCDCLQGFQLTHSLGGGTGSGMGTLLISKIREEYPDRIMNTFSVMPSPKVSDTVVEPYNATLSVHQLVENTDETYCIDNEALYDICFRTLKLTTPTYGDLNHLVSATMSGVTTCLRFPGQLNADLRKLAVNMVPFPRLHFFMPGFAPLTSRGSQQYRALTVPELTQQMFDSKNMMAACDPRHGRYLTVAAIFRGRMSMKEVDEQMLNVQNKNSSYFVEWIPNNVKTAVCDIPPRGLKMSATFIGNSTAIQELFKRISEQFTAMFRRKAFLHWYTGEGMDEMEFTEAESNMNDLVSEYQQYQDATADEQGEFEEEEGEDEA

dcc_human DCC, sequence (P43146 whole entry): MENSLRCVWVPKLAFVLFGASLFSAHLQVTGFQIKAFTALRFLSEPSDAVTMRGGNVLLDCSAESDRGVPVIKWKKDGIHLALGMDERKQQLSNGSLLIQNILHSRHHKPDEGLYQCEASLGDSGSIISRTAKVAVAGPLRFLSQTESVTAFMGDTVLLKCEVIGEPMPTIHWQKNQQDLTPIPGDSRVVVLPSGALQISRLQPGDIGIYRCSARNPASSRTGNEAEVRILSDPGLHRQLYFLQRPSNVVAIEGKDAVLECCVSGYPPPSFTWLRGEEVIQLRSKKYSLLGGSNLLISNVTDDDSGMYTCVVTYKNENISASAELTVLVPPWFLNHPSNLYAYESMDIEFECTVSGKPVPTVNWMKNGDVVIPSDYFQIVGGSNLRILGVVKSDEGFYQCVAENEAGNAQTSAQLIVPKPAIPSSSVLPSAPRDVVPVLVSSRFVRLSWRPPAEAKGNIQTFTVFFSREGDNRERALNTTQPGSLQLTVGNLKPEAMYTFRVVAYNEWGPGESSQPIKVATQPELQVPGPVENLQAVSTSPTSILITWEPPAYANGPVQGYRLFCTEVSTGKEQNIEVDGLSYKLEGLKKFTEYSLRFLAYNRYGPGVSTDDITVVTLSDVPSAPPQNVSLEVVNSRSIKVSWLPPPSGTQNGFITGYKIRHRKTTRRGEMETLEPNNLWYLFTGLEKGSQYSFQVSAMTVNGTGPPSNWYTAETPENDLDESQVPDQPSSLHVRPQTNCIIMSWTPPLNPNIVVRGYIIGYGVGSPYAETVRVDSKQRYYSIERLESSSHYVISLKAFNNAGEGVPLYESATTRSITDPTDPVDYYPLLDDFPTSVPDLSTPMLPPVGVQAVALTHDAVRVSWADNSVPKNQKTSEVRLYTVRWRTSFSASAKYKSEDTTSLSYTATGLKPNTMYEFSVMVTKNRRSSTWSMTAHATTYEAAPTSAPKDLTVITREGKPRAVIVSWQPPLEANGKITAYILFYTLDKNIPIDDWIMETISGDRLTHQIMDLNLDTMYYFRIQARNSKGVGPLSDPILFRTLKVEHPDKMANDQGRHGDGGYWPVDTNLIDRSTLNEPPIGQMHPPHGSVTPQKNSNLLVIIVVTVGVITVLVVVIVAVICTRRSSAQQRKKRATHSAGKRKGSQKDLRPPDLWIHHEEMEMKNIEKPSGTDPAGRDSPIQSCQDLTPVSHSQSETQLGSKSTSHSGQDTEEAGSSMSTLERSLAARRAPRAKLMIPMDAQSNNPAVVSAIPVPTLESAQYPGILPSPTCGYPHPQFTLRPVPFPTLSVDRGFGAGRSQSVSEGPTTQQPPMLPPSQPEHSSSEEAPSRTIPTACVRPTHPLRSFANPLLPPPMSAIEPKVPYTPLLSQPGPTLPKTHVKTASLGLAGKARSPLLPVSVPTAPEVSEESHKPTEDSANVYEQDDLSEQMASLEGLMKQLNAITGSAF

effect of a mutation on the interaction (dcc_human DCC)	effect of a mutation on the interaction (tbb2b_human TUBB2B)	Substance
disrupting interaction		Unconventional myosin-X (Homo sapiens), Q9HD67 F2002K
	disrupting interaction	Unconventional myosin-X (Homo sapiens), Q9HD67 K1647D
	disrupting interaction	Unconventional myosin-X (Homo sapiens), Q9HD67 K1650D

From IntAct's records for PubMed 21642953
